pKd: −log10 of the molar value.
Key:
[1] = molecular target: microtubules (MTs) of cultured rat hippocampal neurons (rat (endogenous in hippocampal neurons)) (UniProt P68370); assay: FRAP fitted with a reaction-diffusion simulation
[2] = molecular target: microtubules (MTs) of cultured rat hippocampal neurons (rat (endogenous in hippocampal neurons)) (UniProt P68370); assay: FRAP fitted with a reaction-diffusion simulation; remark: listed apart in the source
[3] = molecular target: microtubules (MTs) of cultured rat hippocampal neurons (rat (endogenous in hippocampal neurons)) (UniProt P68370); assay: FRAP fitted with a reaction-diffusion-advection simulation

| Substance | pKd [1] | pKd [2] | pKd [3] |
| --- | --- | --- | --- |
| GFP-MAP2B expressed in cultured rat hippocampal neurons (from UniProt P11137-1 1-1827) (natural protein) | 6.00 | – | – |
| GFP-MAP2C, wild type (pAcGFP-His-MAP2C), expressed in cultured rat hippocampal neurons (from UniProt P11137-2 1-471) (natural protein) | 5.35 | 6.00 | 5.52 |

Reference: doi:10.1101/2023.04.26.538370
